According to article doi:10.1101/2023.05.26.542337 (bioRxiv, 2023):

B1: Cas2/3 (fusion of Cas2 to the Cas3 nuclease/helicase, type I-F, Pseudomonas aeruginosa PA14) (enzyme)
chain: MNILLVSQCEKRALSETRRILDQFAERRGERTWQTPITQAGLDTLRRLLKKSARRNTAVACHWIRGRDHSELLWIVGDASRFNAQGAVPTNRTCRDILRKEDENDWHSAEDIRLLTVMAALFHDIGKASQAFQAKLRNRGKPMADAYRHEWVSLRLFEAFVGPGSSDEDWLRRLADKRETGDAWLSQLARDDRQSAPPGPFQKSRLPPLAQAVGWLIVSHHRLPNGDHRGSASLARLPAPIQSQWCGARDADAKEKAACWQFPHGLPFASAHWRARTALCAQSMLERPGLLARGPALLHDSYVMHVSRLILMLADHHYSSLPADSRLGDPNFPLHANTDRDSGKLKQRLDEHLLGVALHSRKLAGTLPRLERQLPRLARHKGFTRRVEQPRFRWQDKAYDCAMACREQAMEHGFFGLNLASTGCGKTLANGRILYALADPQRGARFSIALGLRSLTLQTGQAYRERLGLGDDDLAILVGGSAARELFEKQQERLERSGSESAQELLAENSHVHFAGTLEDGPLREWLGRNSAGNRLLQAPILACTIDHLMPASESLRGGHQIAPLLRLMTSDLVLDEVDDFDIDDLPALSRLVHWAGLFGSRVLLSSATLPPALVQGLFEAYRSGREIFQRHRGAPGRATEIRCAWFDEFSSQSSAHGAVTSFSEAHATFVAQRLAKLEQLPPRRQAQLCTVHAAGEARPALCRELAGQMNTWMADLHRCHHTEHQGRRISFGLLRLANIEPLIELAQAILAQGAPEGLHVHLCVYHSRHPLLVRSAIERQLDELLKRSDDDAAALFARPTLAKALQASTERDHLFVVLASPVAEVGRDHDYDWAIVEPSSMRSIIQLAGRIRRHRSGFSGEANLYLLSRNIRSLEGQNPAFQRPGFETPDFPLDSHDLHDLLDPALLARIDASPRIVEPFPLFPRSRLVDLEHRRLRALMLADDPPSSLLGVPLWWQTPASLSGALQTSQPFRAGAKERCYALLPDEDDEERLHFSRYEEGTWSNQDNLLRNLDLTYGPRIQTWGTVNYREELVAMAGREDLDLRQCAMRYGEVRLRENTQGWSYHPYLGFKKYN
B2: Cas1 (type I-F, Pseudomonas aeruginosa PA14) (enzyme)
chain: MDDISPSELKTILHSKRANLYYLQHCRVLVNGGRVEYVTDEGRHSHYWNIPIANTTSLLLGTGTSITQAAMRELARAGVLVGFCGGGGTPLFSANEVDVEVSWLTPQSEYRPTEYLQRWVGFWFDEEKRLVAARHFQRARLERIRHSWLEDRVLRDAGFAVDATALAVAVEDSARALEQAPNHEHLLTEEARLSKRLFKLAAQATRYGEFVRAKRGSGGDPANRFLDHGNYLAYGLAATATWVLGIPHGLAVLHGKTRRGGLVFDVADLIKDSLILPQAFLSAMRGDEEQDFRQACLDNLSRAQALDFMIDTLKDVAQRSTVSA

Target: the molecule itself
Experiment: cryo-EM structure

Protein	binding result
B1	binds
B2	binds
